{"source": "patent US20230287068A1", "about": "“KERATIN BD-6, PREPARATION METHOD THEREFOR AND PHARMACEUTICAL COMPOSITION AND USE THEREOF” (INSTITUTE OF MATERIAL MEDICA, CHINESE ACADEMY OF MEDICAL …, priority 2019, published 2023)", "key": {"[1]": {"system": "yeast-induced fever model in rats", "assay": "Yeast-induced fever model in SD rats", "format": "in vivo", "details": "for Body temperature 2 hours after modeling / Body temperature 4 hours after modeling / Body temperature 6 hours after modeling / Body temperature 8 hours after modeling: 20% yeast s.c., SD rats", "description": "(§1) • Medicines: yeast (OXOID LP0021), aspirin (SIGMA A2093), protein BD-6; • Instruments: electronic balance (SARTORIUS BP121S type), electronic clinical thermometer (CITIZEN CT-513W type). • Experiment grouping: • Normal control group; • Model group: yeast fever model; • Positive control group: Aspirin 300 mg/kg group; • Protein BD-6, 10 mg/kg group, 50 mg/kg group.\n(§2) Preparation of experimental animals: After the experimental animals adapt to the experimental environment (temperature 22° C.±2° C., relative humidity 50%±2%) for 1 day. Pre-adaptation to measure rectal temperature at 8:00 and 15:00, rats were fasted and water was taken freely 12 h before experiment, and let the animal to empty its feces before measuring the rectal temperature. Apply petroleum jelly to the electronic thermometer probe before each temperature measurement. Insert the rat rectum 2 cm (can be marked at 2 cm to ensure that the depth of each insertion is consistent), and record the body temperature after the reading is stable.\n(§3) Subcutaneous injection of dry yeast to replicate rat fever model: The body temperature of the rats was measured before modeling. Qualified rats with a body temperature of 36.2-37.3° C. were selected and randomly divided into groups with 8 rats in each group. After oral administration of aspirin and different doses of protein BD-6, 20% yeast suspension (10 ml/kg) was injected subcutaneously immediately, and the normal control group was injected intraperitoneally with an equal volume of normal saline. The body temperatures of the rats were monitored after 2 hours for a total of 8 hours.\n(§4) According to the body temperature measured at each time point on the day of the experiment, calculate the mean, standard deviation and standard error of the body temperature of each group of rats. The data of each group was compared with TTEST, and P<0.05 was considered as a significant difference."}, "[2]": {"system": "acetic acid writhing of ICR mice", "assay": "Acetic acid writhing test in ICR mice", "format": "in vivo", "details": "for Frequency of writhing / Writhing incubation period: 0.6% acetic acid i.p., within 15 minutes", "description": "• Animals: male ICR mice; • Drugs and reagents: aspirin, physiological saline, glacial acetic acid, protein BD-6. • Experiment grouping: • Model group; • Aspirin 300 mg/kg group; • Protein BD-6, 50 mg/kg group, 200 mg/kg group.\nOne day after the experimental animals adapt to the environment, Aspirin 300 mg/kg, protein BD-6 50 mg/kg, 200 mg/kg were given orally one hour in advance, and the administration volume was 10 ml/kg; Then, 0.6% acetic acid solution was injected intraperitoneally, and the incubation period (seconds) and frequency of writhing in the animal was observed within 15 minutes.\nCalculate the mean and standard error of the data in each group. Compared with the model group by TTEST, P<0.05 was considered as statistically different."}, "[3]": {"system": "lipopolysaccharide (LPS) induced fever model in rats", "assay": "Lipopolysaccharide (LPS) induced fever model in SD rats", "format": "in vivo", "details": "for Body temperature 2 hours after modeling / Body temperature 4 hours after modeling / Body temperature 6 hours after modeling / Body temperature 8 hours after modeling: LPS 20 µg/kg i.p., SD rats", "description": "as §1, with “Animals: 230-260 grams of male SD rats; • Drugs: lipopolysaccharide (LPS, SIGMAL-2880),” for “Medicines: yeast (OXOID LP0021),”, “(SIGMAA2093),” for “(SIGMA A2093),”, “lipopolysaccharide” for “yeast”\nMethod: the method of intraperitoneal injection of Lipopolysaccharide to replicate rat fever model.\nas §2\nas §3, with “Intraperitoneal” for “Subcutaneous”, “lipopolysaccharide” for “dry yeast”, “lipopolysaccharide (20 µg/kg, 2” for “20% yeast suspension (10”, “intraperitoneally” for “subcutaneously”\nas §4"}, "[4]": {"system": "PLO-induced epilepsy in mice", "assay": "Pilocarpine (PLO) induced convulsive epilepsy in mice", "format": "in vivo, ICR mice", "parameters": "mortality rate: unit not given here", "details": "for Cases of deaths / Grade IV seizure rate / mortality rate / Cases of Grade IV / Grade II seizure incubation period / Grade III seizure incubation period / Grade IV seizure incubation period: PLO 225 mg/kg i.p.; for Cases of deaths / Grade IV seizure rate / mortality rate / Cases of Grade IV: 10 mice; for Cases of Grade IV: 30 min observation; for Grade II seizure incubation period / Grade III seizure incubation period / Grade IV seizure incubation period: mean±SEM; for Grade IV seizure incubation period: maximum 1800 seconds", "description": "• Animals: male ICR mice; • Drugs: Pilocarpine HCl (PLO, pilocarpine, pilocarpine hydrochloride), Diazepam (diazepam tablets), protein BD-6. • Experiment grouping: • Model group: • Diazepam 2 mg/kg group; • Protein BD-6, 50 mg/kg group, 200 mg/kg group.\nThe drug was administered once in the afternoon the day before modeling, PLO-225 mg/kg (modeling agent) was injected intraperitoneally 1 hour after the test drug was administered intragastrically on the day of modeling. And positive drug can be administered once 20 minutes before modeling. Observe for 30 minutes after PLO injection.\nObservation indicators: ①Seizure situation: the time of seizures from Grade II to Grade IV; ②the time to death.\nSeizure grade: Refer to Racine grading standard: Grade 0: No response; Grade I: manifested as twitching of facial muscles or the corners of the mouth; Grade II: can nod; Grade III: twitching of one limb; Grade IV: rigidity or body twitching; Grade V: generalized epilepsy (generalized tonic seizures).\nCount the number of Grade IV seizures and deaths in each group of mice in the experiment; Grade II, III and IV incubation period. […] Chi-square test was used for statistics of the number of cases. The mean value and standard error of the incubation period were calculated, and TTEST was used to compare the model group with other groups. P<0.05 was considered as a significant difference."}}}
{"molecule": "BD-6: recombinant keratin with the amino acid sequence SEQ ID NO:1, expressed in E. coli, about 45 kD; protein of Example 4 (protein, listed as Bos taurus) MTTTIRHFSSGSIKGSSGLAGGSSRSCRVSGSLGGGSCRLGSAGGLGSGLGGSSYSSCYSFGSGGSYGSGGYVSGGYGGGFGGVDGLLVGGEKATMQNLNDRLASYLDKVRALEEANTELELKIRDWYQKQAPGPAPDYSSYFKTIEDLRNKIHTATVDNANLLLQIDNARLAADDFRTKFETEQALRVSVEADINGLRRVLDELTLARADLEMQIENLKEELAYLRKNHEEEMKALRGQVGGEINVEMDAAPGVDLSRILNEMRDQYEKMAEKNRKDAEDWFFSKTEELNREVATNSELVQSGKSEISELRRTLQALEIELQSQLSMKASLEGSLAETENRYCMQLSQIQGLIGSVEEQLAQLRCEMEQQNQEYKILLDVKTRLEQEIATYRRLLEGEDAHLTQYKTKEPVTTRQVRTIVEEVQDGRVISSREQVHQTSH", "values": [{"measurement": "Body temperature 2 hours after modeling", "setting": "[1]; BD-6 10 mg/kg oral", "result": "37.0±0.1", "unit": "°C"}, {"measurement": "Body temperature 4 hours after modeling", "setting": "[1]; BD-6 10 mg/kg oral", "result": "37.4±0.1", "unit": "°C"}, {"measurement": "Body temperature 6 hours after modeling", "setting": "[1]; BD-6 10 mg/kg oral", "result": "37.3±0.09", "unit": "°C"}, {"measurement": "Body temperature 8 hours after modeling", "setting": "[1]; BD-6 10 mg/kg oral", "result": "37.5±0.1", "unit": "°C"}, {"measurement": "Body temperature 2 hours after modeling", "setting": "[1]; BD-6 50 mg/kg oral", "result": "37.0±0.2", "unit": "°C"}, {"measurement": "Body temperature 4 hours after modeling", "setting": "[1]; BD-6 50 mg/kg oral", "result": "37.4±0.1", "unit": "°C"}, {"measurement": "Body temperature 6 hours after modeling", "setting": "[1]; BD-6 50 mg/kg oral", "result": "37.4±0.1", "unit": "°C"}, {"measurement": "Body temperature 8 hours after modeling", "setting": "[1]; BD-6 50 mg/kg oral", "result": "37.3±0.1", "unit": "°C"}, {"measurement": "Effect on increase in body temperature (in words)", "setting": "[1]; BD-6 10 and 50 mg/kg, most time points after modeling, P<0.05 vs model group", "result": "can inhibit the increase in body temperature of model rats to varying degrees"}, {"measurement": "Frequency of writhing", "setting": "[2]; BD-6 50 mg/kg oral", "result": "31.1±3.7", "unit": "times"}, {"measurement": "Writhing incubation period", "setting": "[2]; BD-6 50 mg/kg oral", "result": "220.7 ± 22.2", "unit": "s"}, {"measurement": "Frequency of writhing", "setting": "[2]; BD-6 200 mg/kg oral", "result": "18.6±2.7^∗∗ times"}, {"measurement": "Writhing incubation period", "setting": "[2]; BD-6 200 mg/kg oral", "result": "193.2 ± 17.3", "unit": "s"}, {"measurement": "Times of writhing vs model group (in words)", "setting": "[2]; BD-6 200 mg/kg, P<0.05", "result": "can significantly reduce the times of writhing in mice"}, {"measurement": "Body temperature 2 hours after modeling", "setting": "[3]; BD-6 10 mg/kg oral", "result": "37.1±0.2", "unit": "°C"}, {"measurement": "Body temperature 4 hours after modeling", "setting": "[3]; BD-6 10 mg/kg oral", "result": "37.4±0.2", "unit": "°C"}, {"measurement": "Body temperature 6 hours after modeling", "setting": "[3]; BD-6 10 mg/kg oral", "result": "37.3±0.2", "unit": "°C"}, {"measurement": "Body temperature 8 hours after modeling", "setting": "[3]; BD-6 10 mg/kg oral", "result": "37.2±0.2", "unit": "°C"}, {"measurement": "Body temperature 2 hours after modeling", "setting": "[3]; BD-6 50 mg/kg oral", "result": "37.2±0.1", "unit": "°C"}, {"measurement": "Body temperature 4 hours after modeling", "setting": "[3]; BD-6 50 mg/kg oral", "result": "37.5±0.2", "unit": "°C"}, {"measurement": "Body temperature 6 hours after modeling", "setting": "[3]; BD-6 50 mg/kg oral", "result": "37.4±0.2", "unit": "°C"}, {"measurement": "Body temperature 8 hours after modeling", "setting": "[3]; BD-6 50 mg/kg oral", "result": "37.4±0.2", "unit": "°C"}, {"measurement": "Effect on body temperature (in words)", "setting": "[3]; BD-6 10 and 50 mg/kg, 2 hours after modeling, P<0.05 vs model group", "result": "can reduce the body temperature of the model rats to different degrees"}, {"measurement": "Cases of deaths", "setting": "[4]; BD-6 50 mg/kg intragastric", "result": 0}, {"measurement": "Grade IV seizure rate", "setting": "[4]; BD-6 50 mg/kg intragastric", "result": 40, "unit": "%"}, {"measurement": "mortality rate", "setting": "[4]; BD-6 50 mg/kg intragastric", "result": 0}, {"measurement": "Cases of Grade IV", "setting": "[4]; BD-6 50 mg/kg intragastric", "result": 4}, {"measurement": "Grade II seizure incubation period", "setting": "[4]; BD-6 50 mg/kg intragastric", "result": "110±7^∗ s"}, {"measurement": "Grade III seizure incubation period", "setting": "[4]; BD-6 50 mg/kg intragastric", "result": "169±9^∗ s"}, {"measurement": "Grade IV seizure incubation period", "setting": "[4]; BD-6 50 mg/kg intragastric", "result": "1439±155^∗ s"}, {"measurement": "Incubation period of epilepsy Grade II, III and IV vs model group (in words)", "setting": "[4]; BD-6 50 mg/kg, PLO model", "result": "statistically different from the model group"}, {"measurement": "Cases of deaths", "setting": "[4]; BD-6 200 mg/kg intragastric", "result": 0}, {"measurement": "Grade IV seizure rate", "setting": "[4]; BD-6 200 mg/kg intragastric", "result": 50, "unit": "%"}, {"measurement": "mortality rate", "setting": "[4]; BD-6 200 mg/kg intragastric", "result": 0}, {"measurement": "Cases of Grade IV", "setting": "[4]; BD-6 200 mg/kg intragastric", "result": 5}, {"measurement": "Grade II seizure incubation period", "setting": "[4]; BD-6 200 mg/kg intragastric", "result": "99 ± 6", "unit": "s"}, {"measurement": "Grade III seizure incubation period", "setting": "[4]; BD-6 200 mg/kg intragastric", "result": "157 ± 8", "unit": "s"}, {"measurement": "Grade IV seizure incubation period", "setting": "[4]; BD-6 200 mg/kg intragastric", "result": "1279 ± 181", "unit": "s"}]}
